Our source for the Km values is publication PMC8395317, “The Simple Method of Preparation of Highly Carboxylated Bacterial Cellulose with Ni- and Mg-Ferrite-Based Versatile Magnetic Carrier for Enzyme Immobilization” (International Journal of Molecular Sciences, 2021).

Substrate in this series: CCCC(=O)Oc1ccc([N+](=O)[O-])cc1
In words: purified protein. Type of series: biochemical, Moesziomyces antarcticus. The following applies: free enzyme, 0.1 to 1.2 mmol/L pNPB, 50 mmol/L phosphate pH 7.0, 0.004% Triton X-100, 30 °C.

B1: lipase B from Candida antarctica (Lipozyme CALB-L) (Moesziomyces antarcticus) (protein)
chain: LPSGSDPAFSQPKSVLDAGLTCQGASPSSVSKPILLVPGTGTTGPQSFDSNWIPLSTQLGYTPCWISPPPFMLNDTQVNTEYMVNAITALYAGSGNNKLPVLTWSQGGLVAQWGLTFFPSIRSKVDRLMAFAPDYKGTVLAGPLDALAVSAPSVWQQTTGSALTTALRNAGGLTQIVPTTNLYSATDEIVQPQVSNSPLDSSYLFNGKNVQAQAVCGPLFVIDHAGSLTSQFSYVVGRSALRSTTGQARSADYGITDCNPLPANDLTPEQKVAAAALLAPAAAAIVAGPKQNCEPDLMPYARPFAVGKRTCSGIVTP
notes: commercial recombinant enzyme (Lipozyme CALB-L, Sigma-Aldrich), used without further purification; free form
The term Km denotes the concentration of substrate that gives half-maximal velocity. Turning to B1, the Km amounted to 160 ± 10 µM.
